Assay results as given in article PMC4499159.
One block for each substance: values may come before it.

What was measured:
[1] = biological target: apurinic/apyrimidinic endonuclease 1 (human) (UniProt P27695); experiment: dynamic light scattering; individual proteins or equimolar mixtures at 6 μM; 25 mM HEPES pH 7.5, 100 mM NaCl, 1 mM DTT; 24°C; hydrodynamic radius compared with predicted values
DNA polymerase β (rat) = DNA polymerase β (rat) (UniProt P06766); experiment: FRET or BRET; FAM-labelled protein (donor, 40 nM, fixed) titrated with the TMR-labelled partner (acceptor); corrected for acceptor signal; E = 1 - Fda/Fd; EC50 is that of the TMR-labelled partner; 50 mM HEPES pH 8.0, 100 mM NaCl, 4 mM DTT; apparent
[2] = biological target: apurinic/apyrimidinic endonuclease 1 (human) (UniProt P27695); experiment: as above
[3] = biological target: apurinic/apyrimidinic endonuclease 1 (human) (UniProt P27695); experiment: other fluorescence titration; FAM-labelled protein at 40 nM (fixed) titrated with the unlabelled partner; 50 mM HEPES pH 8.0, 100 mM NaCl, 4 mM DTT; excitation 485 nm, emission 520 nm; EC50 from a four-parameter logistic fit, an apparent equilibrium dissociation constant
[4] = biological target: DNA polymerase beta (Polβ) (rat) (UniProt P06766); experiment: fluorescence titration; settings: 50 mM HEPES pH 8.0, 100 mM NaCl, 4 mM DTT (+10 mM EDTA for APE1), labelled protein from 20 nM, temperature not stated
XRCC1 (human) = XRCC1 (human) (UniProt P18887); experiment: fluorescence titration; settings: 50 mM HEPES pH 8.0, 100 mM NaCl, 4 mM DTT (+10 mM EDTA for APE1), labelled protein from 20 nM, temperature not stated
[5] = biological target: X-ray repair cross-complementing protein 1 (human) (UniProt P18887); experiment: dynamic light scattering; individual proteins or equimolar mixtures at 6 μM; 25 mM HEPES pH 7.5, 100 mM NaCl, 1 mM DTT; 24°C; hydrodynamic radius compared with predicted values
[6] = biological target: X-ray repair cross-complementing protein 1 (human) (UniProt P18887); experiment: other fluorescence titration; TAF-labelled XRCC1 at 40 nM (fixed) titrated with the unlabelled partner; 50 mM HEPES pH 8.0, 100 mM NaCl, 4 mM DTT; EC50 from a four-parameter logistic fit, apparent
[7] = biological target: FAM-labeled human apurinic/apyrimidinic endonuclease 1 (human) (UniProt P27695); experiment: other fluorescence titration; 40 nM FAM-APE1 premixed with 160 nM AP-DNA, titrated with unlabeled partner; 50 mM HEPES pH 8.0, 100 mM NaCl, 4 mM DTT, 10 mM EDTA; EC50 from four-parameter fit, apparent
[8] = biological target: FAM-labeled human apurinic/apyrimidinic endonuclease 1 (human) (UniProt P27695); experiment: other fluorescence titration; 40 nM FAM-APE1 premixed with 160 nM gap-DNA, titrated with unlabeled partner; 50 mM HEPES pH 8.0, 100 mM NaCl, 4 mM DTT, 10 mM EDTA; EC50 from four-parameter fit, apparent
[9] = biological target: FAM-labeled human apurinic/apyrimidinic endonuclease 1 (human) (UniProt P27695); experiment: other fluorescence titration; 40 nM FAM-APE1 premixed with 160 nM incised AP-DNA, titrated with unlabeled partner; 50 mM HEPES pH 8.0, 100 mM NaCl, 4 mM DTT, 10 mM EDTA; EC50 from four-parameter fit, apparent
[10] = biological target: AP endonuclease 1 (APE1) (human) (UniProt P27695); experiment: fluorescence titration; settings: 50 mM HEPES pH 8.0, 100 mM NaCl, 4 mM DTT (+10 mM EDTA for APE1); labelled protein from 20 nM; temperature not stated

stoichiometry N [1]: 2 | EC50 (DNA polymerase β (rat)): 90 nM | FRET efficiency E (DNA polymerase β (rat)): 0.37 | EC50 [2]: 130 nM | EC50 [3]: 120 nM | stoichiometry N [3]: 2
Substance: apurinic/apyrimidinic endonuclease 1 (from UniProt P27695 1-318) (enzyme)

Substance: GGCGATTAAGTTGGGNAACGTCAGGGTCTTCC / GGAAGACCCTGACGTTACCCAACTTAATCGCC [AP-DNA]
K half ([4]; N16 of strand 1 = THF abasic site): 20 nM

Substance: pUC19
K half [4]: 2400 nM | K half (XRCC1 (human); TAF-XRCC1, n 0.63): 1700 nM

stoichiometry N [5]: 2 | EC50 [6]: 73 nM | EC50 [3]: 76 nM
Substance: X-ray repair cross-complementing protein 1 (from UniProt P18887 1-633) (natural protein)

EC50 [7]: 78 nM | EC50 [8]: 51 nM | EC50 [9]: 83 nM
Substance: human X-ray repair cross-complementing protein 1 (from UniProt P18887 1-633) (natural protein)

Substance: nick-pUC19
K half ([4]; nicked by N.Bst9I): 30 nM | K half (XRCC1 (human); TAF-XRCC1, n 0.60, nicked by N.Bst9I): 10 nM

Substance: GGCGATTAAGTTGGGTAACGTCAGGGTCTTCC (double strand) [ds-DNA]
K half [10]: 100 nM | K half [4]: 160 nM | K half (XRCC1 (human)): 110 nM
